From article PMC12846278, “Efficient Expression of Lactone Hydrolase Cr2zen for Scalable Zearalenone Degradation in Pichia pastoris” (Toxins, 2025)

System: T1, C[C@H]1CCCC(=O)CCC/C=C/c2cc(O)cc(O)c2C(=O)O1
T1 construct: full-length ORF (792 bp, 264 aa, 29 kDa) in pPICZalphaA with alpha-factor secretion signal, secreted from Pichia pastoris X33; ~35 kDa band for Ser-Cr2
Test: HPLC, ZEN degradation; Lineweaver-Burk
Type: biochemical, Clonostachys rosea
Conditions: 20 mM Tris-HCl pH 8.0, 30 °C

## Cr2zen (Clonostachys rosea)
  Km: 75.9 ± 2.1 µM
